Measured values from patent US20150284723A1 (MEDICAL DIAGNOSTIC LABORATORIES, published 2015).
Positions count from the first letter of the chain named.

T1: FLAG-tagged PME-1 (wild-type protein methylesterase 1) (human, UniProt Q9Y570 1-386)
T1 construct: Expressed in stably transfected ECC-1 cells and pulled down with FLAG resin; also called FLAG-PME-1; not shown: FLAG tag
T1 sequence (looked up): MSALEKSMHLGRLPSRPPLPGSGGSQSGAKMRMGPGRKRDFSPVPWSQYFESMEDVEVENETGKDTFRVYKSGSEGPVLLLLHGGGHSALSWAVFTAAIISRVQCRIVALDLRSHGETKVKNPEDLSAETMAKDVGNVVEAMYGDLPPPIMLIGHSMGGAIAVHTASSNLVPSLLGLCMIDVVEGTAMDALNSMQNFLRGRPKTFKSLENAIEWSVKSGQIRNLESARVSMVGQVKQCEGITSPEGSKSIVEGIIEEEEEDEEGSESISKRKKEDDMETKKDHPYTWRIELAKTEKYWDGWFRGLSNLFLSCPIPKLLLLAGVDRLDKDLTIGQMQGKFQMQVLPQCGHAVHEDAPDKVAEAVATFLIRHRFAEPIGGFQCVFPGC

T2: FLAG-tagged PME-1 S156A (catalytically inactive mutant) (human, UniProt Q9Y570 1-386)
T2 construct: Expressed in stably transfected ECC-1 cells and pulled down with FLAG resin; also called FLAG-PME-1 S156A; FLAG PME-1 S156A; not shown: FLAG tag
T2 sequence (looked up): T1 sequence (looked up) with S156A

B1: Ppp6c, the catalytic subunit of PP6 (endogenous) (enzyme)
chain: MAPLDLDKYVEIARLCKYLPENDLKRLCDYVCDLLLEESNVQPVSTPVTVCGDIHGQFYDLCELFRTGGQVPDTNYIFMGDFVDRGYYSLETFTYLLALKAKWPDRITLLRGNHESRQITQVYGFYDECQTKYGNANAWRYCTKVFDMLTVAALIDEQILCVHGGLSPDIKTLDQIRTIERNQEIPHKGAFCDLVWSDPEDVDTWAISPRGAGWLFGAKVTNEFVHINNLKLICRAHQLVHEGYKFMFDEKLVTVWSAPNYCYRCGNIASIMVFKDVNTREPKLFRAVPDSERVIPPRTTTPYFL
notes: Endogenous protein in the lysate of the human ECC-1 cell line; also called phosphatase 6

Tests used:
[1] = target: protein phosphatase 2A (PP2A); experiment: cell-based or functional assay
[2] = target: T1, FLAG-tagged PME-1 (wild-type protein …); experiment: FLAG co-immunoprecipitation from ECC-1 lysate, Western blot with anti-Ppp6c
From the text: (§1) Cells (post-transfection) were collected and cellular protein was extracted. Input depicts the relative expression of each protein in total cell lysate, whereas the elution depicts proteins that were immunoprecipitated with FLAG resin.
(§2) There are other protein phosphatases in the same family as PP2A in cells that share some similarity to PP2A. In this experiment, we examined if PME-1 binding to Ppp2ca is specific over other phosphatases. We chose to examine phosphatase 4 (PP4) and phosphatase 6 (PP6) since the C-terminal tail of the catalytic subunit of PP2A (i.e., Ppp2ca) is TPDYFL (amino acids 304-309 of SEQ ID NO: 12) (the substrate for PME-1 demethylation) is similar to that of protein phosphatase 4 (i.e., Ppp4c) (VADYFL) (amino acids 302-307 of SEQ ID NO: 13) and phosphatase 6 (i.e., Ppp6c), (TTPYFL) (amino acids 300-305 of SEQ ID NO: 14), respectively. Specifically, we examined if PME-1 may bind and demethylate PP4 or PP6.

[3] = target: T2, FLAG-tagged PME-1 S156A (catalytically …); experiment: as above
From the text: as §1, §2

Molecule	PP2A phosphatase activity (RL95-2 cells over-expressing PME-1) [1]	PP2A phosphatase activity (RL95-2 cells, shRNA against PPME1) (fold increase) [1]	binding result [2]	binding result [3]
PME-1 protein (endogenous, over-expressed or depleted in cells) (from UniProt Q9Y570 2-386) (enzyme)	90 % decrease	30		
B1			no binding	no binding
